The record followed here is publication PMC8211771.

Substrate in the data set: O=[N+]([O-])c1ccc(O[C@@H]2O[C@H](CO)[C@H](O)[C@H](O)[C@H]2O)cc1
The data set is described as follows: purified protein. Conditions: 100 mM phosphate-based buffer, 5 μM protein.

Where [1] appears, read: pH 8.0, 20 °C (room temperature), Figure 6 legend gives 0.047 mM (±0.005), pH 8.0.
[2] abbreviates: pH 8.0, 20 °C (room temperature), Figure 6 legend gives 0.07 mM (±0.012), pH 8.0.
[3] abbreviates: pH 8.4, 20 °C (room temperature), Figure 6 legend gives 0.052 mM (±0.007), pH 8.4.
Setting [4] is: pH 8.0, 20 °C (room temperature), Figure 6 legend gives 0.13 mM (±0.010), pH 8.0.

B1: BT2857C (Bacteroides thetaiotaomicron VPI-5482) (protein)
chain: ELDKTKFREMYLQNDSRVDSYDGKMEYVWNGRISKDGDSGGVGLHTGTGTKDGPAVFTFDLGVLAKLSRFALWAIQDEKHFYNDMSPRRYEVWGCATEPNPDGSWDQWVKLLDMENVKPSGSPIGILTEDDIEAAKIGDQANVPLDMPRVRYIRIKCLKNWSNNYNICFTELTFWGND
As usually defined, the kcat is the maximal rate divided by the concentration of active sites. The kcat/Km is the turnover number divided by the Michaelis constant. Turning to B1, under setting [1], the kcat turned out to be 0.011 s⁻¹ and the kcat/Km was 234 M⁻¹ s⁻¹.

B2: BT2857N (Bacteroides thetaiotaomicron VPI-5482) (protein)
chain: CAEDMVKPIENDKDAPGTVQDVKTESLPGAVKFTYTLPSDPDLLYVLAKYTNKTGKVMEFRSSFYTNSVTVEGFGDTDTYKVELYTVDRSENRSQPQIVEVVPLTPPILSCYESLSMVSDFGGMTFEMDNKFKSDLAIYVCTPDELGDMVLAETFYSAREEIVYSVRGYDAVPRRFGIFLQDKYGNETDTLFTELTPIYERELDKT
Consider B2, for which, under setting [2], the kcat stood at 0.046 s⁻¹ and the kcat/Km worked out at 657 M⁻¹ s⁻¹.

B3: BT3158 (Bacteroides thetaiotaomicron VPI-5482) (protein)
chain: CEDVETHKPYGDGSGHAPGTVQVTSYEQIPGGVTLKFIAPTDEDLLYIKIKYTLDNGKEMEARASLYTDETTIEGFGNTNPKKLVISAVNKMEKEGEAIITEIVPGKPAYLTAIEEIEVNPTFGGIYIHTTNGGRNYLIFDVSTKDSKGNWNIEHTEYTSVKNIGFTLRGFSAEPHDFKVRVRDLYDNQSEEYLTTLTPLYEEKLDLTKFKTFYLANDIKMDNAGHTLESLFNGDHGLNSWNYAHGYDFNPSEFPVWFTFDMGQTAQLSRFTSWQRSMGGSYYYRAGAIKEWEVWGRSDLPSSDGSWDGWTKLADCESIKPSGWPTGSNSEEDITYASKGEEFEFLADIPPVRYIRFKILSTHDGAGLVVMQQLWFYGTPIQ
For the protein B3, under setting [3], the kcat came out at 1.21 s⁻¹ and the kcat/Km amounted to 23300 M⁻¹ s⁻¹.

B4: BT2857 (Bacteroides thetaiotaomicron VPI-5482) (protein)
chain: CAEDMVKPIENDKDAPGTVQDVKTESLPGAVKFTYTLPSDPDLLYVLAKYTNKTGKVMEFRSSFYTNSVTVEGFGDTDTYKVELYTVDRSENRSQPQIVEVVPLTPPILSCYESLSMVSDFGGMTFEMDNKFKSDLAIYVCTPDELGDMVLAETFYSAREEIVYSVRGYDAVPRRFGIFLQDKYGNETDTLFTELTPIYERELDKTKFREMYLQNDSRVDSYDGKMEYVWNGRISKDGDSGGVGLHTGTGTKDGPAVFTFDLGVLAKLSRFALWAIQDEKHFYNDMSPRRYEVWGCATEPNPDGSWDQWVKLLDMENVKPSGSPIGILTEDDIEAAKIGDQANVPLDMPRVRYIRIKCLKNWSNNYNICFTELTFWGNDNEE
B4: under setting [4], the kcat turned out to be 0.046 s⁻¹ and the kcat/Km was found to be 354 M⁻¹ s⁻¹.
